This is an account of results in the DeepSol protein solubility set.

A short description of this data set: soluble on expression in E. coli; label from the status in PepcDB or PDB records.
With “MIMKNGIVYFVGAGPGDPGLLTIKGKQALKEADVILYDRLANPKLLEFASPDCQFIYCGKLPNRHFMKQKEINALLVEKALNGLTVVRLKGGDPSVFGRVGEEADALHEHGIRYEMVPGITSGIAAPLYAGIPVTHRDFASSFAMITAHDKSLKGTPNLDWEGLARSVQTLVFYMGVKNLSYICQQLISYGKSPSVPVIVIQWGTWGRQRSVKGTLENIQQKVQEHQITNPAIIVIGDIVNFQTHSWFESKPLIGRHLMVVTHGEDEDPLADKLRDSGADLIEWPKWRTENMPVNEEILRKIGTFEDVFFTSRRAVCEFFRALASQKIDIRQLTAKLSAASEQAKTELEKRGFLVTAIQPDSEKRLVVGSRHAVENMQKHESCSFYITHENVIDDRFTHMIQRTISESPLHMVICPNKLSVQQLINGGEQIGILPEPSASRPPIVCIGDDSAAGIYGFTAVQEQDELLAFIHNQHAEKKLL”, the “soluble on expression in E. coli” value was “not soluble”.
With “MINKLDNLNEEVANQIFTVFQNSYKIEAQLIGTLNFPPLLRSAKDIENSKTLFYGFSENECLAAVIEIVLENKQLDINSLTVDPNYFRKGIANKLITYILDKFYFSEAIVETAVVNTPAINLYKKHGFVEFKRWIPSHGIEKLAMSVKATL”, the “soluble on expression in E. coli” value is on record as “not soluble”.
In the case of “MINLRWPLNWLKLQSSHGQRLNSQLNLIHSRKWIDFDEQIVGTWKLASSENCPNFIEWFGIEKKKSNYGYYNDLTQAKLNENLVFKMNYNNIVGIPKLFPHMSEKTVRENRHIKTTDDRSLKLTIDRYIDMGKLNVTMELKVNEGKHVCTCKLVYDRVYY” it was “not soluble”.
The same measure for “MINVLIIDDDAMVAELNRRYVAQIPGFQCCGTASTLEKAKEIIFNSDTPIDLILLDIYMQKENGLDLLPVLHNARCKSDVIVISSAADAATIKDSLHYGVVDYLIKPFQASRFEEALTGWRQKKMALEKHQYYDQAELDQLIHGSSSNEQDPRRLPKGLTPQTLRTLCQWIDAHQDYEFSTDELANEVNISRVSCRKYLIWLVNCHILFTSIHYGVTGRPVYRYRIQAEHYSLLKQYCQ”: “soluble”; for “MIPAEIAKTAFKSLLPVLERGVVAADRAFSGYIQPRRLRGKLLLQPYVGWGTPREVELTGRVLLPRALAPARKGDPRWRNFHNIVRRLFSREVGGVRVAGTLSDQTVSAVSDSDGYFTLHFTFPRPIAAGWHEVRLQMEDRQEDAARARVQVVGKARFGIISDLDDTVIQSDVTSLPRMLMTSLTGNARTRSPFPGVGALYRALTREGEARNPIFYVSSSPWNFFDLLWQFLDYRRIPLGPLFLRNWGMDLLGGHGGYKHGVIERIFHRYPNLNFVLVGDSGEKDPEIYAEVVRRFPGRVLAVYIRDVTGAERDEGVLRLREEIRKAGADLVLASDSLSAAGHALALGLITPGEYRSVLTSVARTYETLEHHHHHH”: “soluble”; for “MIPIEIDSGSGFCFGVVNAIRHAEKQLEKSSDKLYCLGDIVHNTLEVERLGKKGLETIDYDAFSRLRGAKVLLRAHGEPPEIYRMAGENGVTIIDATCPVVLRLQNKIKSRYEATRSLGAQVVIYGKRGHAEVNGLVGQTEGTAIVIESEEELDKIDYTRPVILFSQTTKSLEGFGQIIDSISTRMQPGVTFEHHDTICRQVANRIPHIGAFATAHELVFFVAGEKSSNGKVLFGHCLAANPRSIFISSPEVIVPDMLVPLPASIGICGATSTPRWQMEEVASHIKALLLEHHHHHH”: “soluble”.
In the case of “MIQKTISETSPPPMFSDEEILTEDEIEEYLDNLKSKLPSFVIILLKNNLRGKRVTKKQLDKIVERITEVLSKGRRDDKTEELNKKLQTLEQKLDAIMKLTTMAVSTKTSEEIEKIKTNEKIEIENAPIKIKSEEKPEKPVEIEVSKKKETMDTGKKTETEEKVKEIEVPKPVEKTHEKVEETKTKGEIKKEVKKEVKLKKYELPKESPMGGSFMTPIEEEKEYRLNDIPEDAVSMTLVFKWLEFLISRGGMTYLPDILDYYNKIGWISNRVILKLLRFAKNMKITFDEEELRPRDKLSPSDHIVSLLYIEKLAGRPIDSEILEMLEIEIRRIKKWAIELQSI” it was “not soluble”; in that of “MIRFAVIGTNWITRQFVEAAHESGKYKLTAVYSRSLEQAQHFANDFSVEHLFTSLEAMAESDAIDAVYIASPNSLHFSQTQLFLSHKINVICEKPLASNLAEVDAAIACARENQVVLFEAFKTACLPNFHLLRQALPKVGKLRKVFFNYCQYSSRYQRYLDGENPNTFNPAFSNGSIMDIGFYCLASAVALFGEPKSVQATASLLASGVDAQGVVVMDYGDFSVTLQHSKVSDSVLASEIQGEAGSLVIEKLSECQKVCFVPRGSQMQDLTQPQHINTMLYEAELFATLVDEHLVDHPGLAVSRITAKLLTEIRRQTGVIFPADSVKL”, “soluble”; in that of “MIRLTRLDGDVFFVNPDLIEAIEETPDTHIVLSNGRRYLVIEKTDAIVARIISFKSSVMKRALGGHGRKYLRRKMEGSYLPRCPLKPGHNTDLEHHHHHH”, “soluble”.
As for “MIRMPLATASLLAIAISLAGCGEGKDKAAAPAPAAAPAAPAAAPAAPAPAPAAAAQTDDAAAKAVVANYANMVSAVFDDAQGAAKKLSTAVDAFLAKPNDETLKAARDAWVAARVPYMQSEVFRFGNTIIDDWEGQVNAWPLDEGLIDYVAKDYQHALGNPGATANIIANTEIQVGEDKVDVKEITSEKLASLNELGGSEANVATGYHAIEFLLWGQDLNGTGPGAGARPASDYLEGAGATGGHNDRRRTYLKAVTDLLVSDLEEMAGNWKAGVADNYRATLEAESGESGLRKMLFGMGSLSLGELAGERMKVALEANSSEDEHDCFSDNTHNSHFYNGKGIRNVYLGEYTRTDGSKVSGPSLSSLVAKVDPATDATLRADLDDTQAKLQAIVDHANKGEHFDQLIGAGNTAGNQVVRDAIAALVKQTGAIEQAAGKLGITDLNPDNADHEF”, the “soluble on expression in E. coli” value is given as “soluble”.
“MIRQRRRALTPEQQQEMGQQAATRMMTYPPVVMAHTVAVFLSFDGELDTQPLIEQLWRAGKRVYLPVLHPFSAGNLLFLNYHPQSELVMNRLKIHEPKLDVRDVLPLSRLDVLITPLVAFDEYGQRLGMGGGFYDRTLQNWQHYKTQPVGYAHDCQLVEKLPVEEWDIPLPAVVTPSKVWEW”: the “soluble on expression in E. coli” value is “soluble”.
In the case of “MIRYKIYQNQQKKGLNAGKWFARAVSDETFDLSKLAEHMSKHNSPYSSGVIKGVLTDMVDCIKELLLDGKSVKIDDLAIFGVGIRSKAAETLEEFSLEKNITGMRLKARATGNLSTTNLKLDSQLKQQAEYQKPTTPGGGGSGSGNTPDPKPNPDEGDEEAPDPTV” it was “not soluble”; in that of “MISDIRKDAEVRMEKCVEAFKTQISKVRTGRASPSLLDGIVVEYYGTPTPLRQLASVTVEDSRTLKINVFDRSMGPAVEKAIMASDLGLNPSSAGTDIRVPLPPLTEERRKDLTKIVRGEAEQARVAVRNVRRDANDKVKALLKDKAISEDDDRRSQEEVQKMTDAAIKKVDAALADKEAELMQF”, “not soluble”.
Turning to “MISSMTGFGRSKVESDTFQITVEMKSVNHRFLEMSIRLPKQMMVFEDKIRKIIAQQVRRGRIEVSISIAGEGLVERKLSVNWSLLEQYQSMMEDIKGKFQLQDSITLEQLMAMPEVTAIEEIENVNEHFENSLYEAVRQAAHMLKTMRDGEGERLHKDIAYRLQEISNCVNAIIPHAPIVTQKYRERLENRLKELHNQDLDEQRLLTEVAIFAERCDIHEELVRLQSHLEQFRETLQIEEPVGRKMDFIVQEMHREINTIGSKANDLTISKYVVEMKNNLEKIREQVQNIE”, the “soluble on expression in E. coli” value was “not soluble”.
The same measure for “MISVMQQMINNDSPEDSKESITSVQQTPFFWPSAAAAIPSIQGESRSERESETGSSPQLAPSSTGMVMPGTAGMYGFGPSRMPTANEFGMMMNPVYTDFYQNPLASTDITIPTTAGSSAATTPNAAMHLPWAISHDGKKKRQPYKKDQISRLEYEYSVNQYLTNKRRSELSAQLMLDEKQVKVWFQNRRMKDKKLRQRHSGPFPHGAPVTPCIERLIN”: “not soluble”.
In the case of “MISYGELIRQIRQSKKISQKEVYTGVISKSYAIEFEKGTHAISSILLEKIVTKLMVSMEEFFFMYHQEELPEKEDFWEAYERACKTDEIAIWELLYQKISSEEGKINQVKSAAIKLELDHIKGKQVMDKKVVRILENYLIEAVFWTLEDIFLFTRMLPYLSLKSRVPFYYKLLNTLDRYRHFERGRRILQTAIASIIDDFIEKNEIEHMELMIRSLKKISDDCEGAYFKILCMYYHGIIERGEGAEIKQAIAILRVLGYENKALKYEAMYRQFSLKATI” it was “not soluble”; in that of “MITCLIVDDELFAREELADSLSQEADIEIIGQCSNAIEALQTITKEKPQLVFLDIQMPRISGMELIAMLDPDTLPKIVFVTAFDEFAVKAFDNHAFDYLLKPIDADRLSKTLKRVRKDLTPQAVNLIAPRSLEHLPCYSGSKLKVIPIQDVEYVFSDLSGIHVACTKGKVHTQLTLKVLEEKTPLVHCHRQYLISPKAIAEIELLDTGAEVTTLLGDKVPVSRRYLKSLKQLFGFQ”, “not soluble”.
In the case of “MITDLILHNHPRMKTITLNDNHIAHLNAKNTTKLEYLNLSNNNLLPTNDIDQLISSKHLWHVLVNGINNDPLAQMQYWTAVRNIIDDTNEVTIDLSGLNLTTQPPGLQNFTSINLDNNQFTHFDATNYDRLVKLSLNSNALESINFPQGRNVSITHISMNNNALRNIDIDRLSSVTYFSAAHNQLEFVQLESCEWLQYLNLSHNQLTDIVAGNKNELLLLDLSHNKLTSLHNDLFPNLNTLLINNNLLSEIKIFYSNFCNVQTLNAANNQLKYINLDFLTYLPSIKSLRLDNNKITHIDTNNTSDIGTLFPIIKQSKTLEHHHHHH” it was “not soluble”; in that of “MITKLDIQEKDGFLTMKDFPMNCIFNKVKTGCGATTIALTNNENYIITVPTTELIENKCYPTKDADGNVKFWKKHERRAGLSPVVNNLFGLYGNFTLELKKKLKDYLSSVGVKKIICTYDKIDKLMEFINPKDFKLTIDEYHNFLKQYSFRDKAINGVLAHFKEFKSYCFLSATPIPNNLKPAIFNDIPEYIADWNTTDDITVYPYHTDKPYMVAAKFIKTYQAKGCLNVNGIESKEAYFFINSVTEIKAILKQTQLTEDDYRIICADNPKNRRTLEEYTISSSADAPKKFNFITSKSFEGVDFHSETGLCFVVSNVQNRHTLVSIDMDIPQIVGRIRTKSNPFRNKVVHIFNTKATDHYTTFEEMEQIVDKEVKAAQERADMLNNTKLSEAATKQQINEIKKVGIESYLSYQENKFVVNDMVAKLQLYSYYIATVVYQSDKSLRETYAQSGIVTTKGKWHIAPEKFVKELIVKPTFRELHKRYCEIKANPMTFDLQTIDIEHEYPILGRAYRQLGVKELKRLRTIKSIQEALGEA”, “not soluble”.
On to “MITLPQLITTDTDMTAGLTSGKTTGSAEDFLALLAGALGADGAQGKDARITLADLQAAGGKLSKELLTQHGEPGQAVKLADLLAQKANATDETLTDLTQAQHLLSTLTPSLKTSALAALSKTAQHDEKTPALSDEDLASLSALFAMLPGQPVATPVAGETPAENHIALPSLLRGDMPSAPQEETHTLSFSEHEKGKTEASLARASDDRATGPALTPLVVAAAATSAKVEVDSPPAPVTHGAAMPTLSSATAQPLPVASAPVLSAPLGSHEWQQTFSQQVMLFTRQGQQSAQLRLHPEELGQVHISLKLDDNQAQLQMVSPHSHVRAALEAALPMLRTQLAESGIQLGQSSISSESFAGQQQSSSQQQSSRAQHTDAFGAEDDIALAAPASLQAAARGNGAVDIFA”, for which the “soluble on expression in E. coli” value is “not soluble”.
